The source of these data is article doi:10.1101/2021.12.20.473401.

This experiment concerns the target SARS-CoV spike glycoprotein (S) (SARS-CoV) (UniProt P59594). Description: SPR. In general terms: In SPR one partner is held on a chip, and binding of the other changes the refractive index at the surface.

For orientation: Kd means a measure of binding affinity in units of concentration. High values mean lower affinity, low ones higher affinity. The substance VHH-72 yielded an equilibrium dissociation constant (Kd) of 6.52 nM.
